Values of other authors in patent US5494894A, “Agent for the regulation of the appetite or a sleeping agent” (Erlanson-Albertsson; Charlotte, priority 1986, dated 1996).

Test system: patients
Conditions: administered intravenously; cited from earlier work

B1: cholocystokinin (peptide, UniProt P06307 21-115, looked up)
Cholecystokinin: QPVPPADPAGSGLQRAEEAPRRQLRVSQRTDGESRAHLGALLARYIQQARKAPSGRMSIVKNLQNLDPSHRISDRDYMGWMDFGRRSAEEYEYPS
modifications: Cholecystokinin
notes: hormone which stimulates the secretion of pancreatic enzymes
**Q.** For B1, which Feeling of satiety is on record?
**A.** The Feeling of satiety was “earlier feeling of satiety”.
